The supplement of paper PMC9233669
Variants at the floor of the assay were thinned out.

Assays:
biotinyl-Phe-oxazolone = assay: self-aminoacylation, catalytic enhancement (BFO) (fold over background); higher = more active; k-Seq, kA / k0A0; sequences stand for … in GGGAAUGGAUCCACAUCUACGAAUUC…UUCACUGCAGACUUGACGAAGCUG
In short: (§1)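 Each biotinyl-aminoacyl-oxazolone, at 2–1250 μM, was incubated with mutagenized RNA pools (0.43 μM) carrying a 21-nt variable region. The 50 μL reactions contained HEPES/NaCl/KCl/MgCl2/CaCl2 buffer with 5% acetonitrile at pH 6.9–7.0 and ran for 90 minutes at room temperature. After streptavidin capture, RNA was measured by qPCR in triplicate and by Illumina sequencing, and catalytic enhancement was calculated as median kA over the uncatalyzed rate from a pseudo-first-order fit of per-sequence fraction reacted.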

biotinyl-Ile-oxazolone = assay: self-aminoacylation, catalytic enhancement (BIO) (fold over background); higher = more active; k-Seq, kA / k0A0; sequences stand for … in GGGAAUGGAUCCACAUCUACGAAUUC…UUCACUGCAGACUUGACGAAGCUG
In short: as §1

biotinyl-Met-oxazolone = assay: self-aminoacylation, catalytic enhancement (BMO) (fold over background); higher = more active; k-Seq, kA / k0A0; sequences stand for … in GGGAAUGGAUCCACAUCUACGAAUUC…UUCACUGCAGACUUGACGAAGCUG
In short: as §1

biotinyl-Val-oxazolone = assay: self-aminoacylation, catalytic enhancement (BVO) (fold over background); higher = more active; k-Seq, kA / k0A0; sequences stand for … in GGGAAUGGAUCCACAUCUACGAAUUC…UUCACUGCAGACUUGACGAAGCUG
In short: as §1

biotinyl-Leu-oxazolone = assay: self-aminoacylation, catalytic enhancement (BLO) (fold over background); higher = more active; k-Seq, kA / k0A0; sequences stand for … in GGGAAUGGAUCCACAUCUACGAAUUC…UUCACUGCAGACUUGACGAAGCUG
In short: as §1

biotinyl-Trp-oxazolone = assay: self-aminoacylation, catalytic enhancement (BWO) (fold over background); higher = more active; k-Seq, kA / k0A0; sequences stand for … in GGGAAUGGAUCCACAUCUACGAAUUC…UUCACUGCAGACUUGACGAAGCUG
In short: as §1

Sequence | self-aminoacylation (biotinyl-Phe-oxazolone) | self-aminoacylation (biotinyl-Ile-oxazolone) | self-aminoacylation (biotinyl-Met-oxazolone) | self-aminoacylation (biotinyl-Val-oxazolone) | self-aminoacylation (biotinyl-Leu-oxazolone) | self-aminoacylation (biotinyl-Trp-oxazolone)
AUUACGCAGGUCAUCGAGUGA [Fam2.1 aminoacylation ribozyme variant] | 3.59 | 2.73 | 3.04 | 2.45 | 3.44 | 5.06
AUUACGCUAGUCAUCGAGUGA [Fam2.1 aminoacylation ribozyme variant] | 2.19 | 2.48 | 3.01 | 2.47 | 3.48 | 3.63
AUUACGCUGGUCAUCGACUGA [Fam2.1 aminoacylation ribozyme variant] | 0.691 | 1.48 | 0.889 | 1.24 | 1.73 | 1.65
AUUACGCUGGUCAUCGAGGGA [Fam2.1 aminoacylation ribozyme variant] | 1.38 | 1.61 | 1.46 | 2.03 | 1.98 | 2.25
AUUACGCUGGUCAUCGAGUCA [Fam2.1 aminoacylation ribozyme variant] | 0.768 | 1.15 | 1.15 | 1.23 | 1 | 0.981
AUUACGCUGGUCAUCGAGUGG [Fam2.1 aminoacylation ribozyme variant] | 1.66 | 1.46 | 2.06 | 1.45 | 1.87 | 1.73
AUUACGCUGGUUAUCGAGUGA [Fam2.1 aminoacylation ribozyme variant] | 27.5 | 3.22 | 5.92 | 3.68 | 5.48 | 6.53
AUUACGCUUGUCAUCGAGUGA [Fam2.1 aminoacylation ribozyme variant] | 4.09 | 2.6 | 3.16 | 2.36 | 3.93 | 4.03
AUUACUCUAGUCAUCGAGUGA [Fam2.1 aminoacylation ribozyme variant] | 19.1 | 2.95 | 5.28 | 2.9 | 5.41 | 6.32
AUUACUCUGGUCAACGAGUGA [Fam2.1 aminoacylation ribozyme variant] | 26.9 | 3.12 | 5 | 2.76 | 5.72 | 7.22
AUUACUCUGGUCAUCGAGUGA [Fam2.1 aminoacylation ribozyme variant] | 6.25 | 3.77 | 6.63 | 3.78 | 6.98 | 7.48
AUUACUCUGGUCAUCGAGUGU [Fam2.1 aminoacylation ribozyme variant] | 4.35 | 2.52 | 4.24 | 2.57 | 4.37 | 3.92
AUUACUCUGGUCAUCGGGUGA [Fam2.1 aminoacylation ribozyme variant] | 39.7 | 5.43 | 10.1 | 6.05 | 11.8 | 12.2
AUUACUCUGGUCAUGGAGUGA [Fam2.1 aminoacylation ribozyme variant] | 3.58 | 2.42 | 3.28 | 2.05 | 3.98 | 3.35
AUUACUCUGGUCCUCGAGUGA [Fam2.1 aminoacylation ribozyme variant] | 18.2 | 2.31 | 3.62 | 2.01 | 4.34 | 4.62
AUUACUCUGGUCUUCGAGUGA [Fam2.1 aminoacylation ribozyme variant] | 21.2 | 3.13 | 5.11 | 2.85 | 5.04 | 7.1
AUUAGCCAGGUCAUCGAGUGA [Fam2.1 aminoacylation ribozyme variant] | 19.1 | 3.72 | 5.35 | 3.8 | 5.48 | 6.91
AUUAGCCUGGGCAUCGAGUGA [Fam2.1 aminoacylation ribozyme variant] | 57.8 | 3.66 | 6.92 | 3.8 | 8.51 | 7.8
AUUAGCCUGGUCAUAGAGUGA [Fam2.1 aminoacylation ribozyme variant] | 18.4 | 2.96 | 4.83 | 3.18 | 5.43 | 7.07
AUUAGCCUGGUCAUCAAGUGA [Fam2.1 aminoacylation ribozyme variant] | 17.9 | 2.74 | 4.31 | 2.45 | 4.41 | 4.94
AUUAGCCUGGUCAUCGGGUGA [Fam2.1 aminoacylation ribozyme variant] | 94.3 | 6.74 | 10.1 | 7.06 | 13.3 | 13.4
AUUAGCCUGGUCAUCGUGUGA [Fam2.1 aminoacylation ribozyme variant] | 21.6 | 1.96 | 3.38 | 2.07 | 3.17 | 4.27
AUUAGGCUGGUCAUCGAGUGA [Fam2.1 aminoacylation ribozyme variant] | 8.97 | 2.53 | 3.01 | 2.48 | 2.85 | 4.23
